From the supplement of paper PMC10567573
± gives the standard deviation.

Assay: protein stability index of a GFP-peptide fusion (GPS, HEK-293T) (PSI 1-6); higher = more stable
[1] = treatment: DMSO, c terminus: a fixed tail appended
[2] = treatment: MLN4924 1 uM, 8 h, c terminus: a fixed tail appended
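Also: 24-mer peptide tiles fused after GFP, lentivirally expressed, FACS-sorted into six equal bins by GFP/DsRed ratio, decoded by Illumina sequencing, PSI is the read-weighted mean bin number.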

Sequence | protein stability index [1] | protein stability index [2] | protein stability index (treatment: DMSO, c terminus: native) | protein stability index (treatment: MLN4924 1 uM, 8 h, c terminus: native)
KEPPLLLGVLHPNTKLRQAERLFE [APMAP] | 2.64 ± 0.38 | 2.78 ± 0.47 | – | –
GPLAETTEDFWRMLWEHNSTIVVM [PTPRD] | 2.48 ± 0.42 | 2.4 ± 0.33 | – | –
WEASSLGLVTAALHMVIVAAFTWA [KMT2E] | 3.44 ± 0.31 | 3.16 ± 0.74 | – | –
KELGTLIPKSSDPEMRWNKGTILK [TFE3] | 4.06 ± 0.28 | 4.01 ± 0.14 | – | –
IFLYARPNSTFPIDKSMTVVLTFI [OR4A15] | 2.84 ± 0.37 | 3 ± 0.3 | – | –
TTEKQRLVKKLQDSVLERWVNDPQ [GOLPH3L] | 3.71 ± 0.25 | 4.05 ± 0.076 | – | –
FSQYGRIITSRILVDQVTGVSRGV [ELAVL3] | 2.23 ± 0.26 | 2.33 ± 0.23 | – | –
LSTAASLGPSGLQNHGQHLILSRE [LCOR] | 3.99 ± 0.38 | 3.96 ± 0.16 | – | –
AGDAEVCPTPARLATTEKKTEQQR [NOP53] | 5.37 ± 0.23 | 5.44 ± 0.16 | – | –
KEYDVARNTGAYTSSGLATASFRT [TEKT4] | 3.6 ± 0.26 | 3.69 ± 0.14 | – | –
LQEVPTGLDSISHDSANCELPLLT [ETS2] | 4.71 ± 0.12 | 4.92 ± 0.42 | – | –
LSPMTASSFLSFAELFSYVLQDRA [FEM1A] | 2.47 ± 0.39 | 2.26 ± 0.13 | – | –
RQGLKYCLPLTFCIHTGLSQYIAV [FBXO3] | 3.08 ± 0.45 | 2.87 ± 0.52 | – | –
DANTWRLYGGMNYRRLGGGVGVIK [KLHL20] | 2.63 ± 0.24 | 2.54 ± 0.38 | – | –
PTLWTEQVKSRQNKTNKNSVSSCD [SMOC2] | 4.81 ± 0.28 | 4.84 ± 0.12 | – | –
EKEKKNRKGKDKENGSVSSSETPP [EIF5] | 5.58 ± 0.24 | 5.65 ± 0.13 | – | –
ERVWALAQEKAADVQARLNRSDHG [FCHSD1] | 4.23 ± 0.13 | 4.23 ± 0.24 | – | –
NIWVCYASYVVFRIIYMLLITIAT [SLC19A2] | 3.41 ± 0.35 | 3.14 ± 0.88 | – | –

Sequence | protein stability index [1] | protein stability index [2] | protein stability index (treatment: DMSO, c terminus: native) | protein stability index (treatment: MLN4924 1 uM, 8 h, c terminus: native)
QIKCIELKSELGRKWHKASNYIFV [P2RY14] | 2.72 ± 0.93 | 2.67 ± 0.47 | – | –
ARFAEKEELMLVHSLEYIDLMETT [HDAC6] | 2.66 ± 0.17 | 2.75 ± 0.38 | – | –
IGSKNGGKTTIILRCLDRDEPSKP [DYNC2LI1] | 2.54 ± 0.7 | 3.16 ± 0.32 | – | –
ASSVHLKSESSLPHQTSKMENLPG | 4.8 ± 0.26 | 4.85 ± 0.49 | – | –
SRRDDLEALGHMFMYFLRGSLPWQ [CSNK1G1] | 3.48 ± 0.54 | 3.15 ± 0.86 | – | –
IGDFGISKILSSKSKAYTVVGTPC [NEK8] | 2.35 ± 0.12 | 2.47 ± 0.34 | – | –
QVLDEVIPIHGKGNFPTMEVKPKD [TENT5D] | 4.61 ± 0.18 | 4.6 ± 0.24 | – | –
CFKAKLHRKRGSQPPDMASALTDR [RSPH3] | 3.66 ± 0.26 | 3.95 ± 0.28 | – | –
WCLHVNNWLQVSFTAKHANKVKVL [FSD1] | 3.04 ± 0.73 | 2.93 ± 0.5 | – | –
KAYGWCSELIRHRRVHARKEPSH [ZNF232] | – | – | 2.75 ± 0.2 | 2.51 ± 0.44
IIYPRQQLLTLRELEMIGFIENNV [TRIP13] | 2.6 ± 0.37 | 2.26 ± 0.22 | – | –
LDAVENQLKWASWELHSLRHCDDD [ZNF24] | 3.96 ± 0.12 | 4.03 ± 0.15 | – | –
YSLAPNTPINQNVSLHQASLGGCS [NFE2L1] | 3.54 ± 0.1 | 3.65 ± 0.18 | – | –
SKYADLSDAANRNHEALRQAKQEM [PRPH] | 4.77 ± 0.064 | 4.89 ± 0.14 | – | –
ALGDAFADLSQKSPELQEEFGYNA [ARFIP2] | 4.6 ± 0.17 | 4.63 ± 0.22 | – | –
SLVAPLLLELAGEVTDTGDPIVRP [MYORG] | 3.23 ± 0.33 | 3.3 ± 0.23 | – | –
FVEDQAVVETVFFLTSRTRALLRR [ZSWIM9] | 2.21 ± 0.25 | 2.22 ± 0.14 | – | –
DCDTSSICEDSFDGRSLSKLNLCE [SCARA5] | 4.84 ± 0.16 | 5.05 ± 0.12 | – | –
